Reference: paper PMC4494898

Target: Egr-1 (Zif268) zinc-finger protein (UniProt P18146 335-423)
Experiment: fluorescence anisotropy

B1: 12-bp competitor duplex (dsDNA)
DNA 1: TATGTAGGCGGT
DNA 2: ACCGCCTACATA
B1 was tested, and the Kd was 29 nM.
